A short description of the data set: soluble on expression in E. coli; label from the status in PepcDB or PDB records.
As to “METTGDKAFYFLLKNCGHSLKFVDLRNSKRLHGRSFKLFGSQLESLYLDGSSKVDEMAFEDLCTSCGGLKELRINECYKITDENLSMIARRMEDLSILTLCGDGFKSLTSAGLIHISHMRNITELALDYNALVNDELLISISAGLPLLSSLSLANAGNDSSITAEGVSAIKNLKELTQLDASSLAAVNSKVLEQLGSLKKLEIIQLRNCTYLGDDGVRAKLRMPNIRHVDLSGSILVSNDSIQQFIKAFPSGPKLPPITLVVGGTAADASKLSVRGSRVVVDFSDYSTIVTMQTSQCSSSKFAIGGSASDAEGSDDEFEALTAQRSFYIDAVCGEEESPITDDGKLAEWAEKEARSLGLIKD”, the “soluble on expression in E. coli” value is listed as “not soluble”.
The entry for “METVTLSEARVYVGTYNKYNSGSLFGKWLDLSDYSDKDEFMEACRELHKDDQDPEFMFQDYENIPEALISESWLSDKFFELRDAIEKLSETQQEAFFVWCDHHNNDISEEDADDLISSFEDEYQGEYKDEEDYAYEIVEECYDLPEFAKTYFDYSAFARDLFMTDYWMDNGFVFRCA” is “not soluble”; for “MEVARGLEGVLFTESRMCYIDGQQGKLYYYGIPIQELAEKSSFEETTFLLLHGRLPRRQELEEFSAALARRRALPAHLLESFKRYPVSAHPMSFLRTAVSEFGMLDPTEGDISREALYEKGLDLIAKFATIVAANKRLKEGKEPIPPREDLSHAANFLYMANGVEPSPEQARLMDAALILHAEHGFNASTFTAIAAFSTETDLYSAITAAVASLKGPRHGGANEAVMRMIQEIGTPERAREWVREKLAKKERIMGMGHRVYKAFDPRAGVLEKLARLVAEKHGHSKEYQILKIVEEEAGKVLNPRGIYPNVDFYSGVVYSDLGFSLEFFTPIFAVARISGWVGHILEYQELDNRLLRPGAKYVGELDVPYVPLEARE” it is “soluble”; for “MEVDGASDDEQEQIIRKLVKKPEFLSDEEDDSVEDQVVWECDVVVCNSTPNTEMFSVSYPSSKRDAWDAKRFPIARYKKNVRLLEMRFMTDTQLGSYDKKKAELMYMDGDVPKKGHGIDALRANDEIYEGRAFIHDHPIVNAIGFFKNGEFFIHPLTGAFEMHRSIQGLNKKKKSDGKSGKSDEDSSGEEEDVKPSSAAVRVKFSRPETERQKKRREASALHREKKIASDMWIPMKVHLKDGDPVAEKIDGISQNGLLLDDPEASRMSIRALVNRAIICGVKEELVIESGKEHMLSKQRIDDLPDPNLQLKAHMVKSHVMKTSEMRRLIDPSAMSTDKMIAKLKECASLVQGVWVLDSNLMFKNLAPAHSNTAGKTDLYRAELWRNARDLALCLIDGGHRVTRLTLMTCFKLSERDSDEILSTFGVKCEATRSWRLRVERDAQFLEDPAMKKHVVEQKAKWVQKFNELEKSLQESPAKSPKKK” it is “not soluble”.
The value for “MEVMRGVRVIEGMNGGRFPYCNVVVVGDVVIDAGAGLEVMRKVNASLLVLSHLHPDHSSGAWLFKDVLAPAEGRITLDTLARRFVAPDLVESWKRFISAATGLREFECERYEEGVVVKEPEIVAVPVKGHTMDHHVFLIEQKVLFGADVDLTSFGPFYGNPEADPYLFEREMDKLLDIDFEIFVSAHSKPVFGKELEHHHHHH” was “not soluble”; that for “MEWIERLNKAMSYIEEHITEEIDFEQTAKIACCSAYHFQRMFTYMAGIPLSEYIRRRRMTLAAVELQSSDEKVIDIALKYGYASPTAFNRAFQSVQGITPSAAKKKGTPVKSYPPLSFAITIKGVEGMNYRIEEKEAFRIIGIAQSMSKNLEENFAVVPQMWGKAAADGTIQKLASMIEGQPAGLLGVSICNNEEDWRYFIAVSGTRPAEAPFEEYRVPASTWAVFPGTGTNLSVQDLERRIVTEWLPTSGYEYGSAPDIEVYISPNPENAKYEVWIPVVKKQ” was “not soluble”.
In the case of “MEYGCQPNVLKKTILKMVKRRIHVEGAKKAVNEALLNSQAKAAEEICRIAYESPGGVVFLGAPTGAGKTEVFMAPLLASFASKRPIAARGFLVEPMHSLIKAMVDRLKTSIETLGVSEDHGETVQPTFLYTAPITVTTPDTYFYGFAASRVYRILTHEGVETGRFSMPVGLQATSYTVFDEAHLVQDEVFLSPRLLSLVVAALARAGGLIVVSSATLPSYYKTVIREKLGDWRVEEV”, the “soluble on expression in E. coli” value is “not soluble”.
The entry for “MFADLDYDIEEDKLGIPTVPGKVTLQKDAQNLIGISIGGGAQYCPCLYIVQVFDNTPAALDGTVAAGDEITGVNGRSIKGKTKVEVAKMIQEVKGEVTIHYNKLQADPKQGMSLDIVLKKVKHRLVENMSSGTADALGLSRAILCNDGLVKRLEELERTAELYKGMTEHTKNLLRAFYELSQTHRAFGDVFSVIGVREPQPAASEAFVKFADAHRSIEKFGIRLLKTIKPMLTDLNTYLNKAIPDTRLTIKKYLDVKFEYLSYCLKVKEMDDEEYSCIALGEPLYRVSTGNYEYRLILRCRQEARARFSQMRKDVLEKMELLDQKHVQDIVFQLQRLVSTMSKYYNDCYAVLRDADVFPIEVDLAHTTLAYGLNQEEFTDGEEEEEEEDTAAGEPSRDTRGAAGPLDKGGSWCDS” is “soluble”; for “MFADLDYDIEEDKLGIPTVPGKVTLQKDAQNLIGISIGGGAQYCPCLYIVQVFDNTPAALDGTVAAGDEITGVNGRSIKGKTKVEVAKMIQEVKGEVTIHYNKLQADPKQLEVLFNGPGIESVKI” it is “soluble”; for “MFALVLFVCYLDGGCEDIVVDIYDTEQHCLYSMDDQRIRHGGCFPVEDFIDGFWRPAQQYSDFLEHHHHHH” it is “not soluble”.
Take “MFAPQGLAQFIKVNVTLENGEPVFIYTDANGQVCQGDITVTQAGTITYLLNDQTLKGLKFVGVGFVTPFDGIIDAVTISSDGMLVQLVDLDKTPGTTKFQFVLSNTANTLLVLSPDPQIINRPQN”: the “soluble on expression in E. coli” value is “soluble”.
The entry for “MFARIESGKIIAQKRKELGKTQKVLAEETNVNKSIISQIENGKFSGSLRVYEKYINGLGLELAVRPIKSKIPDFDNLHHLFPDE” is “not soluble”; for “MFDRSRKGEYALLIQPLTDHSAEDGALEEFADLTRSAGATVAGSLAVRIHRPNPSTLLSSGKLKEIKETADATGADLILINHSLSPVQERNLEKSLERRVIDRTGLILDIFAQRACSHEGKLQVELAQLRHLATRLVRGWTHLERQRGGAIGLRGPGETQLETDRRLLQKRVEQLQKRLSKVEVQRTQMRRARVRSEVPRIALVGYTNSGKSTLFNALTGASAYTANQLFATLDPKVRRIVLPGSSAMLADTVGFVRHLPHELVAAFRSTLSEAREADLLLHVIDAADPLREERIDQVDEVLQAIGAGELPQLLVFNKIDCIEGAEVRQDAQDGIPDQARRERVWLSARHGHGVELLQQILNHRLKIQNVQSELRLPPSEGRLRARLHELKGVREEQTDEHGWLLKIDLSLAEIERLAASDYGIPLRALLQDHRDAWTPTLHSKYVSAEYLEHHHHHH” it is “not soluble”.
The value for “MFDSTLNPLWQRYILAVQEEVKPALGCTEPISLALAAAVAAAELEGPVERVEAWVSPNLMKNGLGVTVPGTGMVGLPIAAALGALGGNANAGLEVLKDATAQAIADAKALLAAGKVSVKIQEPCDEILFSRAKVWNGEKWACVTIVGGHTNIVHIETHDGVVFTQQACVAEGEQESPLTVLSRTDAG” was “not soluble”.
The value for “MFEDLLQTKRLIKSYYYYPKLVLVINIAEYLYSKGRDVCIFNFDKIKWEYYPYNLNFHMKCNERSENIIFEAEDESEIPNNFSLVTSIKKLNLGIPQSEIQKLDQNLFKINIDNKIYLFRIIEGKIVEEKIKGLSEEIINILREYNELSLKEIVDILYHKTNSSRDNIRKEIYFLKDIGVIEIKNGKVLLNNNSWLKR” was “soluble”; that for “MFEGFKEVTDKDFYKAVMMNPKPSVVVFTDPNNPANEQIKPILEKYQKLYGDKIDFFYMDVTKNTSFEDFGIFNFPAILYFRDTMELDRHDFIPTEEMVEQAIKRLLRMV” was “not soluble”; that for “MFEGGHSKSFSIFPIRVVYMPVEQGEVPATILISVSKRRFKRAVKRNRVKRQIREVYRKNKQPLLDGLQNKGQRLAIAFIYLSDELVATAELEEKMKTALSRISEKLSL” was “not soluble”.
Regarding “MFEINKQIGIYIHFPWCVRKCPYCDFNSHPIKDDSYLSEQYYQKLIADFDTHLDDLQAREVISIFIGGGTPSLFKAEYLDKVLQHITKNTKISINCEITLEMNPGTVERGSILSYQNIGINRISLGVQSFQDDKLKILGRIHNCENVYTTIDEIKNSKISNFNIDIMHGLPNQSFDDGIFDITQAIAMQPTHISWYQLTIEPNTLFAAKRPKFPDEEILESIEIAGKEALAHAGFKQYEVSAFAKNTLRSIHNSNYWMFGDYIGIGAGAHSKITNLKTKQIKRVWKHKHPKIYTQTDKFIKDSNIVTQDEIIYEFMLNTLRLKNGFKLSEFEQQTFLSSNIISQKLQLGIDKGLLELNANQIKPTAKGYLFLNDCINIFS”, the “soluble on expression in E. coli” value was “not soluble”.
For “MFFIMNYHIDWLTIEQDFGFEIPESILAAIFDFGMVGIHLDTGEMQEGIKTGKYRHKGSFCDEVSIKVSGSVIKMEGNPSRWGKVENVLGFTDVDSCVACFNNILFSLNLPLFTRCTEVFYLQGKEGEKVKKFSNGAIIKRLDITTNKSVGKGNERTFLKALSQMRYRNSVGRLHTNHCTVDWLSEKGNANLIYPSCYIKHEEMKLHSYDKIKNKFGQQAKEFQYYQKVFDYCLENGVVRFEQKLKSRYLQRENLCYWGLSDFSKLNEIQDGFINMYKKLSVSEVKLETIAQQLVSQGVVDTLRKANTTAYYAMRWSSGEDLSLLPIATFKRHRAILRKIGIDIANPCDIEKFQAVRVISCEQIFVKPFKAPDFYQYPSNMPQLRLVALEHHHHHH”, the “soluble on expression in E. coli” value is on record as “not soluble”.
Take “MFFKRGKILSAGRLNKKSLGIVMLLSVGLLLAGCSGSKSSDTGTYSGSVYTVKRGDTLYRISRTTGTSVKELARLNGISPPYTIEVGQKLKLGGAKSSSITRKSTAKSTTKTASVTPSSAVPKSSWPPVGQRCWLWPTTGKVIMPYSTADGGNKGIDISAPRGTPIYAAGAGKVVYVGNQLRGYGNLIMIKHSEDYITAYAHNDTMLVNNGQSVKAGQKIATMGSTDAASVRLHFQIRYRATAIDPLRYLPPQGSKPKC”: the “soluble on expression in E. coli” value is “not soluble”.
The entry for “MFFNLRKNKKRLGWFNNGEVEAVAKDLGVAPSEVREMEARLAAQDSTFEAPAEDDDRDMAFTAPVYYLEDKQSDVAYSLEEDNWEDYTNNRLANAIATLDERSQHIVQSRWLADEKATLQELADTYQVSAERIRQLEKNAMKKLKDAVGDVL” is “not soluble”; for “MFGGIENVKAAEPKVYQFDFGSGSMEPGYIGVRASDRYDRSKGYGFQTPENMRDVAASGAGVKSDAVEFLAYGTKSNNTFNVDLPNGLYEVKVTLGNTARASVAAEGVFQVINMTGDGAEDTFQIPVTDGQLNLLVTEGKAGTAFTLSALKIKKLSDQPVTNRTIYVGGDSTVCNYYPLNSSKQAGWGQMLPHYIDKHTFQVRNMASGGQIARGFRNDGQLEAILKYIKPGDYFMLQLGINDTNPKHKESEAEFKEVMRDMIRQVKAKGADVILSTPQGRATDFTSEGIHSSVNRWYRASILALAEEEKTYLIDLNVLSSAYFTSIGPERTLGLYMDGDTLHPNRAGADALARLAVQELKRQGIAGFLEHHHHHH” it is “soluble”.

(Values after the DeepSol protein solubility set.)
